Data taken from patent US20070172470.

T1: RAP74, P35269
T1 chain: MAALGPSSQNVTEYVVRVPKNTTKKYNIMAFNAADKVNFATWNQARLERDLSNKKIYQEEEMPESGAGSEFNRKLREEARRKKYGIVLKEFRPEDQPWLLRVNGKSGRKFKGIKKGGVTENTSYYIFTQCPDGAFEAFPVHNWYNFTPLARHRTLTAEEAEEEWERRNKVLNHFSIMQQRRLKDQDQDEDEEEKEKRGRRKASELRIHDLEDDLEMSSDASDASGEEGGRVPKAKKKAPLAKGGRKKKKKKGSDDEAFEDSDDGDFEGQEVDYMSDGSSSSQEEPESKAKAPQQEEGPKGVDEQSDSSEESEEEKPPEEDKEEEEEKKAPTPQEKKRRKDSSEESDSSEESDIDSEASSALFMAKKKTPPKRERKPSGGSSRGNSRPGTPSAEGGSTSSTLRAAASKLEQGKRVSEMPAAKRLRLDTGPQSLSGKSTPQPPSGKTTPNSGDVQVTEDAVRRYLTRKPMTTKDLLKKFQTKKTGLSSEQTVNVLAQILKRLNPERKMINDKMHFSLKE

B1: FCP1 (protein)
chain: MEVPAAGRVPAEGAPTAAVAEVRCPGPAPLRLLEWRVAAGAAVRIGSVLAVFEAAASAQSSGASQSRVASGGCVRPARPERRLRSERAGVVRELCAQPGQVVAPGAVLVRLEGCSHPVVMKGLCAECGQDLTQLQSKNGKQQVPLSTATVSMVHSVPELMVSSEQAEQLGREDQQRLHRNRKLVLMVDLDQTLIHTTEQHCQQMSNKGIFHFQLGRGEPMLHTRLRPHCKDFLEKIAKLYELHVFTFGSRLYAHTIAGFLDPEKKLFSHRILSRDECIDPFSKTGNLRNLFPCGDSMVCIIDDREDVWKFAPNLITVKKYVYFQGTGDMNAPPGSRESQTRKKVNHSRGTEVSEPSPPVRDPEGVTQAPGVEPSNGLEKPARELNGSEAATPRDSPRPGKPDERDIWPPAQAPTSSQELAGAPEPQGSCAQGGRVAPGQRPAQGATGTDLDFDLSSDSESSSESEGTKSSSSASDGESEGKRGRQKPKAAPEGAGALAQGSSLEPGRPAAPSLPGEAEPGAHAPDKEPELGGQEEGERDGLCGLGNGCADRKEAETESQNSELSGVTAGESLDQSMEEEEEEDTDEDDHLIYLEEILVRVHTDYYAKYDRYLNKEIEEAPDIRKIVPELKSKVLADVAIIFSGLHPTNFPIEKTREHYHATALGAKILTRLVLSPDAPDRATHLIAARAGTEKVLQAQECGHLHVVNPDWLWSCLERWDKVEEQLFPLRDDHTKAQRENSPAAFPDREGVPPTALFHPMPVLPKAQPGPEVRIYDSNTGKLIRTGARGPPAPSSSLPIRQEPSSFRAVPPPQPQMFGEELPDAQDGEQPGPSRRKRQPSMSETMPLYTLCKEDLESMDKEVDDILGEGSDDSDSEKRRPEEQEEEPQPRKPGTRRERTLGAPASSERSAAGGRGPRGHKRKLNEEDAASESSRESSNEDEGSSSEADEMAKALEAELNDLM
B2: SCP1 261 (protein)
chain: MDSSAVITQISKEEARGPLRGKGDQKSAASQKPRSRGILHSLFCCVCRDDGEALPAHSGAPLLVEENGAIPKTPVQYLLPEAKAQDSDKICVVIDLDETLVHSSFKPVNNADFIIPVEIDGVVHQVYVLKRPHVDEFLQRMGELFECVLFTASLAKYADPVADLLDKWGAFRARLFRESCVFHRGNYVKDLSRLGRDLRRVLILDNSPASYVFHPDNAVPVASWFDNMSDTELHDLLPFFEQLSRVDDVYSVLRQPRPGS
B3: GST-SCP1 214 (protein)
chain: MMGRPCLLTAGRPCLWRRMAPSLRQTPVQYLLPEAKAQDSDKICVVIDLDETLVHSSFKPVNNADFIIPVEIDGVVHQVYVLKRPHVDEFLQRMGELFECVLFTASLAKYADPVADLLDKWGAFRARLFRESCVFHRGNYVKDLSRLGRDLRRVLILDNSPASYVFHPDNAVPVASWFDNMSDTELHDLLPFFEQLSRVDDVYSVLRQPRPGS

What was measured:
[1] = biological target: Ser 5 phosphopeptide (28 aa CTD peptide, 4 heptad repeats)
[2] = biological target: Ser 2 phosphopeptide (28 aa CTD peptide, 4 heptad repeats)
RAP74, P35269 = biological target: T1, RAP74, P35269

| Protein | phosphate released from phosphopeptide (malachite green) [1] | CTD phosphatase assay (mobility shift of GST-CTDo to GST-CTDa) (GST-CTDo) | phosphate released from phosphopeptide (malachite green) [2] | CTD phosphatase activity (dephosphorylation of RNAP IIO prepared by TFIIH), with and without 7 pmol RAP74 (RAP74, P35269) |
| --- | --- | --- | --- | --- |
| B1 | Mammalian FCP1, within a comparable concentration range, did not act on either phosphopeptide | FCP1 does not dephosphorylate rCTDo even at concentrations 100 times higher than that required to dephosphorylate RNAP IIO | Mammalian FCP1, within a comparable concentration range, did not act on either phosphopeptide | – |
| B2 | – | – | – | RAP74 shifted the dose response curve for SCP1 catalyzed dephosphorylation of RNAP IIO to an approximately 10-fold lower concentration |
| B3 | SCP1 preferentially dephosphorylates the Ser 5 phosphopeptide compared to the Ser 2 phosphopeptide | SCP1 dephosphorylates rCTDo and RNAP IIO with comparable efficiency | SCP1 preferentially dephosphorylates the Ser 5 phosphopeptide compared to the Ser 2 phosphopeptide | – |
